# Measurements published in PMC7323458 (Nature chemical biology, 2019).
# T1: β-ketoacyl-ACP-synthase I (FabB) (E. coli, UniProt P0A953 1-406)
# T1 sequence: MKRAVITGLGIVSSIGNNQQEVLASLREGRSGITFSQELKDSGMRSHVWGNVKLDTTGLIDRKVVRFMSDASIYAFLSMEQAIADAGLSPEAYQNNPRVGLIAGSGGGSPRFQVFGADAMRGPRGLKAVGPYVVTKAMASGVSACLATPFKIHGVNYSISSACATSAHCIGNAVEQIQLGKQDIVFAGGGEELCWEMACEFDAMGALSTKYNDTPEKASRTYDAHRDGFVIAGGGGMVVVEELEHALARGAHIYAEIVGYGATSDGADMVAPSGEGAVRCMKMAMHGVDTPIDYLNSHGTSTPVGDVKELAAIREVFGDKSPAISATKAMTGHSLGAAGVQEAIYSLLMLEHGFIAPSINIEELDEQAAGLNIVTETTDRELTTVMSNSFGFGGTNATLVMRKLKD
# Biological target: T1, β-ketoacyl-ACP-synthase I (FabB)
# Experiment: NMR titration
row,Binder,Kd [µM]
1,"wt C8-AcpP (octanoyl-AcpP) (natural protein, E. coli, amide-linked octanoyl (C8) pantetheine probe on the phosphopantetheine serine (S36); 15N, 2H labelled) MSTIEERVKKIIGEQLGVKQEEVTNNASFVEDLGADSLDTVELVMALEEEFDTEIPDEEAEKITTVQAAIDYINGHQA",37.6
2,"D38A C8-AcpP (natural protein, E. coli, amide-linked octanoyl (C8) pantetheine probe on the phosphopantetheine serine (S36); 15N, 2H labelled) MSTIEERVKKIIGEQLGVKQEEVTNNASFVEDLGADSLATVELVMALEEEFDTEIPDEEAEKITTVQAAIDYINGHQA",167
